For 6 molecules, normalised SPOT signal, Boehringer light units (BLU); mean over the file's lines of this peptide results are on record in PMC314469, “Protein Interaction Networks by Proteome Peptide Scanning” (PLoS Biology, 2004).

The chains are these.
T1: Yhr016c SH3 (YSC84_YEAST), P32793
T1 chain: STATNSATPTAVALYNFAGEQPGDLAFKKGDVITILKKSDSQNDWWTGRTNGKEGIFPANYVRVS

T2: Myo5 SH3 (MYO5_YEAST), Q04439
T2 chain: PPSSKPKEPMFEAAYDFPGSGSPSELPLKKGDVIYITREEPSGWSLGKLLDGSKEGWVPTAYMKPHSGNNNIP

T3: Boi1 SH3 (BOI1_YEAST), P38041
T3 chain: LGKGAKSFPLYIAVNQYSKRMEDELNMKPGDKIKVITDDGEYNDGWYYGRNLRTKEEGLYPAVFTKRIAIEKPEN

T4: Boi2 SH3 (BOI2_YEAST), P39969
T4 chain: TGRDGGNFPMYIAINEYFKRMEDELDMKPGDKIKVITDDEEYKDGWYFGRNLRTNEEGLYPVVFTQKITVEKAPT

T5: Yfr024 SH3 (LSB3_YEAST), P43603
T5 chain: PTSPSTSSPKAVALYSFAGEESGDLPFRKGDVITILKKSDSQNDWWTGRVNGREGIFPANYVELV

T6: Rvs167 SH3 (RV167_YEAST), P39743
T6 chain: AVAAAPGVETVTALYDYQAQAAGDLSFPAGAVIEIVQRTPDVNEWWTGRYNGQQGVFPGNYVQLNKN

B1: YMR031W-A 89-102 (peptide)
chain: RFSSRRAPIAPSGK
B2: YMR109W 1006-1019 (peptide)
chain: RHSKKPAPPPPGMQ
B3: YNL317W 375-388 (peptide)
chain: RFWTRARPIDPNAY
B4: YGR255C 239-252 (peptide)
chain: RGWQRFLPTGPIAH
B5: YDR474C 379-392 (peptide)
chain: RIRDKSKPSSPTAT
B6: YJL117W 12-25 (peptide)
chain: RKSDKNAPSVPQVD

The target in one assay is T1, Yhr016c SH3 (YSC84_YEAST), P32793. Put plainly: SPOT array.
Consider B1, for which the normalised SPOT signal, Boehringer light units (BLU); mean over the file's lines of this peptide worked out at 184.

Turning to B2, the normalised SPOT signal, Boehringer light units (BLU); mean over the file's lines of this peptide amounted to 17.7.

B3 yielded a normalised SPOT signal, Boehringer light units (BLU); mean over the file's lines of this peptide of 970.

Consider B4, for which the normalised SPOT signal, Boehringer light units (BLU); mean over the file's lines of this peptide was 597.

In the case of B5, the normalised SPOT signal, Boehringer light units (BLU); mean over the file's lines of this peptide was 46.3.

B6: the normalised SPOT signal, Boehringer light units (BLU); mean over the file's lines of this peptide stood at 50.6.

The target of another assay is T2, Myo5 SH3 (MYO5_YEAST), Q04439. Nature of the assay: SPOT array.
The molecule B1 showed a normalised SPOT signal, Boehringer light units (BLU); mean over the file's lines of this peptide of 564.

With B2, the normalised SPOT signal, Boehringer light units (BLU); mean over the file's lines of this peptide amounted to 1940.

The molecule B3 returned a normalised SPOT signal, Boehringer light units (BLU); mean over the file's lines of this peptide of 279.

Take B4: the normalised SPOT signal, Boehringer light units (BLU); mean over the file's lines of this peptide is 802.

As for B5, the normalised SPOT signal, Boehringer light units (BLU); mean over the file's lines of this peptide turned out to be 547.

In turn, B6 gave a normalised SPOT signal, Boehringer light units (BLU); mean over the file's lines of this peptide of 395.

The target in another assay is T3, Boi1 SH3 (BOI1_YEAST), P38041. Nature of the assay: SPOT array.
In turn, B1 came in with a normalised SPOT signal, Boehringer light units (BLU); mean over the file's lines of this peptide of 2030.

Molecule B2 displayed a normalised SPOT signal, Boehringer light units (BLU); mean over the file's lines of this peptide of 341.

Take B3: the normalised SPOT signal, Boehringer light units (BLU); mean over the file's lines of this peptide came out at 487.

For B4, the normalised SPOT signal, Boehringer light units (BLU); mean over the file's lines of this peptide is 95.9.

As to B5, the normalised SPOT signal, Boehringer light units (BLU); mean over the file's lines of this peptide amounted to 1510.

For the molecule B6, the normalised SPOT signal, Boehringer light units (BLU); mean over the file's lines of this peptide was 1390.

A further assay has as its target T4, Boi2 SH3 (BOI2_YEAST), P39969. Nature of the assay: SPOT array.
B1 gave a normalised SPOT signal, Boehringer light units (BLU); mean over the file's lines of this peptide of 54.1.

Molecule B2 came in with a normalised SPOT signal, Boehringer light units (BLU); mean over the file's lines of this peptide of 22.2.

B3 registered a normalised SPOT signal, Boehringer light units (BLU); mean over the file's lines of this peptide of 1230.

B4 gave a normalised SPOT signal, Boehringer light units (BLU); mean over the file's lines of this peptide of 120.

As for B5, the normalised SPOT signal, Boehringer light units (BLU); mean over the file's lines of this peptide was 3.1.

Molecule B6 yielded a normalised SPOT signal, Boehringer light units (BLU); mean over the file's lines of this peptide of -0.

The next assay concerns the target T5, Yfr024 SH3 (LSB3_YEAST), P43603. Nature of the assay: SPOT array.
Molecule B1 registered a normalised SPOT signal, Boehringer light units (BLU); mean over the file's lines of this peptide of 2420.

In the case of B2, the normalised SPOT signal, Boehringer light units (BLU); mean over the file's lines of this peptide worked out at 304.

As for B3, the normalised SPOT signal, Boehringer light units (BLU); mean over the file's lines of this peptide worked out at 4260.

With B4, the normalised SPOT signal, Boehringer light units (BLU); mean over the file's lines of this peptide amounted to 2080.

B5 returned a normalised SPOT signal, Boehringer light units (BLU); mean over the file's lines of this peptide of 592.

For the molecule B6, the normalised SPOT signal, Boehringer light units (BLU); mean over the file's lines of this peptide is 13.7.

The next assay concerns the target T6, Rvs167 SH3 (RV167_YEAST), P39743. Nature of the assay: SPOT array.
Molecule B1 had a normalised SPOT signal, Boehringer light units (BLU); mean over the file's lines of this peptide of 774.

In the case of B2, the normalised SPOT signal, Boehringer light units (BLU); mean over the file's lines of this peptide was 56.3.

With B3, the normalised SPOT signal, Boehringer light units (BLU); mean over the file's lines of this peptide turned out to be 1610.

The molecule B4 displayed a normalised SPOT signal, Boehringer light units (BLU); mean over the file's lines of this peptide of 562.

B5 registered a normalised SPOT signal, Boehringer light units (BLU); mean over the file's lines of this peptide of 55.6.

For the molecule B6, the normalised SPOT signal, Boehringer light units (BLU); mean over the file's lines of this peptide was 40.6.

Another assay deals with Sho1 SH3 (SHO1_YEAST), P40073. Put plainly: SPOT array.
Sequence of Sho1 SH3 (SHO1_YEAST), P40073 (P40073 295-366): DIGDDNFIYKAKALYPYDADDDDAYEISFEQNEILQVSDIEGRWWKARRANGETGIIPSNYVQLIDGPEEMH
B1: the normalised SPOT signal, Boehringer light units (BLU); mean over the file's lines of this peptide came out at 124.

The molecule B2 displayed a normalised SPOT signal, Boehringer light units (BLU); mean over the file's lines of this peptide of 175.

As to B3, the normalised SPOT signal, Boehringer light units (BLU); mean over the file's lines of this peptide came to 177.

In the case of B4, the normalised SPOT signal, Boehringer light units (BLU); mean over the file's lines of this peptide was 479.

The molecule B5 came in with a normalised SPOT signal, Boehringer light units (BLU); mean over the file's lines of this peptide of 169.

As to B6, the normalised SPOT signal, Boehringer light units (BLU); mean over the file's lines of this peptide came to 89.7.
